In US7988958B2, “Enterococcus and Streptococcus strains and bacteriocins” (The United States of America as represented by the …, priority 2005, dated 2011):
“And” between values parts separate entries of the source, which are not always exact repeats. Identical values can stand only once. Like-named read-outs stand apart in the source and are kept apart here.

Assays:
C. jejuni = assay: Activity of bacteriocin preparations from culture with and without inducer strain (arbitrary units); format: cell-based, Campylobacter jejuni
[1] = Isoelectric focusing (pI); format: physicochemical; settings: for pI of the band with antimicrobial activity: pure bacteriocin, gel overlaid with Campylobacter jejuni
C. jejuni NCTC 11168 [2] = assay: Spot test; format: cell-based, Campylobacter jejuni; settings: for Inhibiting activity in Spot Test: crude antimicrobial preparation (CAP), C. jejuni NCTC 11168; for Inhibiting Activity, Spot Test: purified bacteriocin, C. jejuni
E. coli O157:H7 904 [3] = assay: Spot test; format: cell-based; settings: for Inhibiting activity in Spot Test: crude antimicrobial preparation (CAP), E. coli O157:H7 904; for Inhibiting Activity, Spot Test: purified bacteriocin, E. coli O157:H7
C. jejuni NCTC 11168 [4] = assay: SDS-PAGE gel overlaid with test strain; format: cell-based, Campylobacter jejuni; settings: for Inhibiting Activity measured by SDS-PAGE: CAP, active band, C. jejuni NCTC 11168; for Inhibiting Activity SDS-PAGE: purified bacteriocin, C. jejuni
Description: (§1) CAPs and bacteriocins were electrophoresed in about 15% […] gel weight, about 1% SDS (9×12 cm) in Tri-glycine buffer. After electrophoresis at about 100 mA for approximately 4 hours, gels were fixed with a solution containing approximately 15% ethanol and approximately 1% acetic acid. The gels were then washed with distilled water for approximately 4 hours. To determine molecular weights of protein fractions, the gel was stained with a solution containing approximately 0.21% Coomassi Blue G-250, about 40% ethanol, and about 7% acetic acid. Washed gels were tested against three target bacteria, C. jejuni NCTC 11168, E. coli 0157:H7 904, and S. enteritidis 204 by the method of Bhunia et al. (Journal of Industrial Microbiology, Volume 2, 319-322, 1987; herein incorporated by reference). The gels were placed in Petri dishes, covered with 5% blood-semi-solid Campylobacter agar (about 0.75%) or semi-solid MPA, and seeded with cells of the test strains. Plates containing C. jejuni were incubated at about 42° C. for approximately 48 hours under microaerobic conditions, E. coli 0157:H7 and S. enteriditidis at about 37° C. for approximately 24 hours. Assessment was based on visualization of zones of the inhibited growth of the test strains in the presence of bacteriocins.

E. coli O157:H7 904 [5] = assay: SDS-PAGE gel overlaid with test strain; format: cell-based; settings: for Inhibiting Activity measured by SDS-PAGE: CAP, active band, E. coli O157:H7 904; for Inhibiting Activity SDS-PAGE: purified bacteriocin, E. coli O157:H7
Description: as §1

S. enteritidis 204 [6] = assay: SDS-PAGE gel overlaid with test strain; format: cell-based; settings: for Inhibiting Activity measured by SDS-PAGE: CAP, active band; for Inhibiting Activity SDS-PAGE: purified bacteriocin
Description: as §1

C. jejuni NCTC 11168 [7] = assay: IEF gel tested for growth inhibition of test strain; format: cell-based, Campylobacter jejuni; settings: for Inhibiting Activity measured by IEF: CAP, active band, C. jejuni NCTC 11168; for Inhibiting Activity IEF: purified bacteriocin, C. jejuni
Description: as §1
(§2) Specimens of bacteriocins were placed on IEF gels (pH approximately 4.4-10.0) (Novex, San Diego, Calif.). The gels were run at about 100V for about 1 hour, 200V for about 2 hour, and 500V for about 30 minutes in XCM II™ Mini-Cell (Novex). Gels were washed with distilled water for about 4 hours without fixation followed by staining with Coomassie Blue G-250 to determine isoelectric points (pI) of the bacteriocins and their ability to inhibit the growth of the test strains as presented in FIGS. 1 and 2 and in Table 2.

E. coli O157:H7 904 [8] = assay: as above; format: cell-based; settings: for Inhibiting Activity measured by IEF: CAP, active band, E. coli O157:H7 904; for Inhibiting Activity IEF: purified bacteriocin, E. coli O157:H7
Description: as §1, §2

S. enteritidis 204 [9] = assay: as above; format: cell-based; settings: for Inhibiting Activity measured by IEF: CAP, active band; for Inhibiting Activity IEF: purified bacteriocin
Description: as §1, §2

C. jejuni NCTC 11168 [10] = assay: Influence of enzymes on bacteriocin activity (spot test); format: physicochemical, Campylobacter jejuni
S. enteritidis 1 = assay: MIC by spot test; format: cell-based
S. enteritidis 204 [11] = assay: MIC by spot test; format: cell-based
S. enteritidis 237 = assay: MIC by spot test; format: cell-based
S. choleraesuis 434/4 = assay: MIC by spot test; format: cell-based
S. choleraesuis 370 = assay: MIC by spot test; format: cell-based
S. typhimurium 383/60 = assay: MIC by spot test; format: cell-based
S. typhimurium 320 = assay: MIC by spot test; format: cell-based
E. coli HB101 = assay: MIC by spot test; format: cell-based
E. coli C600 = assay: MIC by spot test; format: cell-based
E. coli O157:H7 G-3 = assay: MIC by spot test; format: cell-based
E. coli O157:H7 OD-3 = assay: MIC by spot test; format: cell-based
Y. enterocolitica 03 = assay: MIC by spot test; format: cell-based
Y. enterolitica 09 = assay: MIC by spot test; format: cell-based, Y. enterocolitica
Y. enterolitica 04 = assay: MIC by spot test; format: cell-based, Y. enterocolitica
Citrobacter freundi = assay: MIC by spot test; format: cell-based
Klebsiella pneumoniae = assay: MIC by spot test; format: cell-based
Sh. dysenteriae = assay: MIC by spot test; format: cell-based
Staphylococcus aureus = assay: MIC by spot test; format: cell-based
[12] = test system: Staphylococcus epidermidis; assay: MIC by spot test; format: cell-based
Y. pseudotuberculosis = format: cell-based
[13] = test system: Pseudomonas aeruginosa 25583; assay: MIC by spot test; format: cell-based
L. monocytogenes 9-72 = assay: MIC by spot test; format: cell-based
C. jejuni L4 = assay: MIC by spot test; format: cell-based
[14] = cultivation with inducer strain
[15] = cultivation without inducer strain

Bacteriocin 50-52: bacteriocin produced by Enterococcus durans/faecium/hirae NRRL B-30746 (strain 50-52); amino acid sequence SEQ ID NO 1 (TTKNYGNGVCNSVNWCQCGNVWASCNLATGCAAWLCKLA; listed as Enterococcus faecium)
M.W. 3.9 kDa: Inhibiting Activity measured by SDS-PAGE (C. jejuni NCTC 11168 [4]) | Inhibiting Activity measured by SDS-PAGE (E. coli O157:H7 904 [5]) | Inhibiting Activity measured by SDS-PAGE (S. enteritidis 204 [6])
3.2 µg/mL: MICs ([12]; Staphylococcus epidermis) | MICs [13]
0.4 µg/mL: MICs (Y. enterolitica 09) | MICs (Sh. dysenteriae) | MICs (Staphylococcus aureus) | MICs (Y. pseudotuberculosis; Y. pseudotuberculosis)
12,800 AU/ml: Activity AU/ml (C. jejuni; [14]) | Inhibiting activity in Spot Test (C. jejuni NCTC 11168 [2]) | Inhibiting Activity, Spot Test (C. jejuni NCTC 11168 [2])
retained it: Antimicrobial activity after treatment (C. jejuni NCTC 11168 [10]; treated with lipase) | Antimicrobial activity after treatment (C. jejuni NCTC 11168 [10]; treated with lysozyme)
6,400 AU/ml: Inhibiting Activity, Spot Test (E. coli O157:H7 904 [3])
0.1 µg/mL: MICs (S. enteritidis 1) | MICs (S. enteritidis 237) | MICs (S. choleraesuis 434/4) | MICs (S. choleraesuis 370) | MICs (S. typhimurium 383/60) | MICs (S. typhimurium 320) | MICs (E. coli HB101) | MICs (E. coli C600) | MICs (E. coli O157:H7 G-3) | MICs (E. coli O157:H7 OD-3) | MICs (Y. enterocolitica 03; Y. enterolitica 03) | MICs (Y. enterolitica 04) | MICs (Citrobacter freundi)
213,333 AU/mg: Specific Activity AU/mg (C. jejuni; [15])
320,000 AU/mg: Specific Activity AU/mg (C. jejuni; [14])
3,200 AU/ml: Activity AU/ml (C. jejuni; [15]) | Inhibiting activity in Spot Test (E. coli O157:H7 904 [3])
8.4: IEF (pI) [1, 14] | IEF (pI) [1, 15] | IEF (pI) ([1]; isolated by Method A) | IEF (pI) ([1]; isolated by Method B)
lost their antimicrobial activity: Antimicrobial activity after treatment (C. jejuni NCTC 11168 [10]; treated with beta-chymotrypsin) | Antimicrobial activity after treatment (C. jejuni NCTC 11168 [10]; treated with papain) | Antimicrobial activity after treatment (C. jejuni NCTC 11168 [10]; treated with proteinase K)
+Band 1: Inhibiting Activity SDS-PAGE (C. jejuni NCTC 11168 [4]) | Inhibiting Activity SDS-PAGE (E. coli O157:H7 904 [5]) | Inhibiting Activity SDS-PAGE (S. enteritidis 204 [6]) | Inhibiting Activity IEF (C. jejuni NCTC 11168 [7]) | Inhibiting Activity IEF (E. coli O157:H7 904 [8]) | Inhibiting Activity IEF (S. enteritidis 204 [9])
band 1: Inhibiting Activity measured by IEF (C. jejuni NCTC 11168 [7]) | Inhibiting Activity measured by IEF (E. coli O157:H7 904 [8]) | Inhibiting Activity measured by IEF (S. enteritidis 204 [9])
0.2 µg/mL: MICs (S. enteritidis 204 [11]) | MICs (Klebsiella pneumoniae) | MICs (L. monocytogenes 9-72) | MICs (C. jejuni L4; C. jejuni L-4)
about 8.4: pI of the band with antimicrobial activity [1]

B1: Bacteriocin 760: bacteriocin produced by Enterococcus durans/faecium/hirae NRRL B-30745 (strain 760); amino acid sequence SEQ ID NO 2 (protein, listed as Streptococcus cricetus)
chain: NRWYCNSAAGGVGGAAVCGLAGYVGEAKENIAGEVRKGWGMAGGFTHNKACKSFPGSGWASG
band 1: Inhibiting Activity measured by IEF (C. jejuni NCTC 11168 [7]) | Inhibiting Activity measured by IEF (E. coli O157:H7 904 [8]) | Inhibiting Activity measured by IEF (S. enteritidis 204 [9])
1600 µg/mL: MIC (E. coli O157:H7 G-3) | MIC (E. coli O157:H7 OD-3) | MIC (Citrobacter freundi) | MIC (Staphylococcus aureus) | MIC ([12]; Staphylococcus epidermidis)
200 µg/mL: MIC (S. enteritidis 1) | MIC (S. enteritidis 204 [11]) | MIC (S. enteritidis 237) | MIC (S. typhimurium 320)
M.W. 5.5 kDa: Inhibiting Activity measured by SDS-PAGE (C. jejuni NCTC 11168 [4]) | Inhibiting Activity measured by SDS-PAGE (E. coli O157:H7 904 [5]) | Inhibiting Activity measured by SDS-PAGE (S. enteritidis 204 [6])
400 µg/mL: MIC (S. choleraesuis 434/4) | MIC (S. choleraesuis 370) | MIC (S. typhimurium 383/60) | MIC [13]
lost their antimicrobial activity: Antimicrobial activity after treatment (C. jejuni NCTC 11168 [10]; treated with beta-chymotrypsin) | Antimicrobial activity after treatment (C. jejuni NCTC 11168 [10]; treated with papain) | Antimicrobial activity after treatment (C. jejuni NCTC 11168 [10]; treated with proteinase K)
3200 µg/mL: MIC (Klebsiella pneumoniae) | MIC (Y. pseudotuberculosis)
160,000 AU/mg and 284,444 AU/mg: Specific Activity AU/mg (C. jejuni)
9.5: IEF (pI) [1] | IEF (pI) ([1]; isolated by Method A) | IEF (pI) ([1]; isolated by Method B)
51,200 AU/ml: Inhibiting activity in Spot Test (C. jejuni NCTC 11168 [2]) | Inhibiting Activity, Spot Test (C. jejuni NCTC 11168 [2])
retained it: Antimicrobial activity after treatment (C. jejuni NCTC 11168 [10]; treated with lipase) | Antimicrobial activity after treatment (C. jejuni NCTC 11168 [10]; treated with lysozyme)
about 9.5: pI of the band with antimicrobial activity [1]
+Band 1: Inhibiting Activity SDS-PAGE (C. jejuni NCTC 11168 [4]) | Inhibiting Activity SDS-PAGE (E. coli O157:H7 904 [5]) | Inhibiting Activity SDS-PAGE (S. enteritidis 204 [6]) | Inhibiting Activity IEF (C. jejuni NCTC 11168 [7]) | Inhibiting Activity IEF (E. coli O157:H7 904 [8]) | Inhibiting Activity IEF (S. enteritidis 204 [9])
100 µg/mL: MIC (E. coli HB101) | MIC (E. coli C600) | MIC (Y. enterocolitica 03; Y. enterocolitica 03) | MIC (Y. enterolitica 09) | MIC (Y. enterolitica 04) | MIC (Sh. dysenteriae) | MIC (L. monocytogenes 9-72) | MIC (C. jejuni L4; C. jejuni L4)
12,800 AU/ml: Inhibiting activity in Spot Test (E. coli O157:H7 904 [3]) | Inhibiting Activity, Spot Test (E. coli O157:H7 904 [3])
